{"source": "patent US12611470B2", "about": "“Chromatin-opening element for stable long term gene expression” (CZ Biohub SF, LLC, priority 2019, dated 2026)", "molecules": {"B1": {"name": "Candidate 6: Full length SRF-UCOE, SEQ ID NO:1; region between human SURF1 and SURF2 including first introns, chr9 (nucleic acid, listed as Homo sapiens)", "DNA": "GCACACGACCACAATTCCACTGAAAGCATTTTAATACGGAACTTGTCACTCCCAGGGAGCCTCCGCTCAGCCGGCAGTTGGTTCATTTCAATCCCCACGACAACCCTTCAAAGTGCAGGGCAGACAGCAGGTGGCTCTGCCCAGGCGCCTGGATCACAGCCCGGCCTGCAGCCCTCACCTGGGCGCGGGGAGACCCTGAGGACGCTCCTCCAGGCGGCGCTGGCCGGGGCCTGCGGACACGGACGGGCGGGCTGAGCTCCGGGACCCCTCCCCGCGCCCCGCACCCCGCACCCCGCACCCCGCACCCCGCACCCGGCGCTCACCCGTCCCAGCCCCGCCGCCCGCAGCCCCAGCTGCAACGCAGCCACCGCCGCCATCGCACCCGGCCCCGCGGGCGCTTCCGGGACGCAGGAGGCATCTGCATCCGGGGCGCCGCTGAGTCCCGCCCAGAGCCCCGCCCCCGGCTCCAGGTTCTGCGAGCGGCTTCCGCCGGGCTGCTCCGCGGGCGCGTCGGCCATGAGCGAGTTGCCGGGCGACGTGCGGGCGTTTCTGCGGGAGCACCCGAGCCTGCGGCTCCAGACGGACGCCCGCAAGGTTCGCAGCGCGGGAGGGGAACGGAGTGGCGGAGAAGGGCGCAGTTGGGATGAGGGGCTGAGGGGAGGGCAGGGGAGAGGAGAGGGCAGGGGAGAGGGGAGAGGGGAGAGCAGGAGAGAGGGGAAGGCAGGGGAGAGGGCGCGGCGGGATCAGGGGAGGAGAGGGAAGGGGGCGCGGCAGGAGGGGGCACCAGGGAGCGGAGCCCTGGCCCTCCTGACGTCCTGCCCGCCCACGCGTCCGCAGGTGAGGTGCATCCTGACAGGTCACGAGCTGCCCTGCCGCCTGCCGGAGCTCCAGGTCTACACCCGCGGCAAAAAGTACCAGCGGCTGGTCCGCGCCTCCCCGGCCTTCGACTATGCAGAGTTCGAGCCGCACATCGTGCCCAGCACCAAGAACCCGTAGGTGGTC"}}, "key": {"P19 cells": {"test_system": "P19 cells", "test": "Standalone (intrinsic) promoter activity screen, UCOE-GFP construct lacking the Ef1a promoter", "assay_type": "cell-based, mouse", "settings": "for inherent promoter activity: synthetic construct without other promoter", "from_the_text": "A schematic representation of the expression construct in which the candidate region (UCOE) is inserted upstream of the GFP gene in the absence of any other promoter sequences as used is shown as an inlay. As positive controls, the Ef1α promoter, the 2.2 kB A2UCOE sequence, and the 1.2 kB reverse orientation sequence 3′UCOE, were cloned into the same reporter construct as the candidate sequences. The percent GFP positive in the population was monitored as a metric for gene expression by flow cytometry analysis with each passage (% GFP). Stably transfected cells were assayed for % GFP+ and median fluorescent intensity (normalized to Ef1a promoter control). Data is reported as mean±SD from biological duplicates.\nP19 cells were seeded at 25,000 cells/well in 12 well plates. 24 h after seeding, cells were transfected using Lipofectamine™ 2000 transfection reagent (Thermo Fisher) according to the manufacturer's instructions using 500 ng DNA/well and 2.5 μL of Lipofectamine per well. 24 hours after transfection, selection was initiated with 1 μg/mL puromycin (Sigma-Aldrich) in regular growth media and, from then on, cells were passaged at 1:15 or 1:20 dilutions whenever cells were 80-90% confluent (every 2-3 days) with frequent refreshing of puromycin-containing media to clear dead cells. After approximately 14-16 days, remaining cells were assumed to be stably transfected and were changed to regular growth media to initiate silencing experiments. During silencing experiments, the P19 cells were passaged every 2-3 days and re-seeded at 15,000 cells/well.\nFluorescence data throughout silencing experiments was obtained using a MACSQuant® VYB flow cytometer (Miltenyi Biotec). EGFP was measured through the 488-nm laser and 525/50 nm band pass filter. Flow cytometry data was analyzed using the FlowJo™ single cell flow cytometry analysis software (Tree Star). After being gated for singlets and viability, GFP+ gates in FlowJo were drawn such that a non-transfected or non-transduced P19 cell population was at 1% GFP+. Median values reported are of cells within the GFP+ gate, both % GFP positive and median are reported with the standard deviation of biological replicates.\nAs A2UOCE dually functions as a protective regulatory element and a universal promoter, the candidate UCOEs were further screened for standalone promoter activity. A similar experiment as the aforementioned screen was performed using a similar expression construct that lacked the Ef1a promoter. This construct was used to assess whether the candidate sequences could drive reporter expression and act as stand-alone functional promoters. Candidates were compared to the positive control of the EF1a promoter, which had ˜70% GFP+ cells after two weeks of antibiotic selection, showing a distinct positive population in the fluorescence histogram. The GFP+ gate (i.e., flow cytometry fluorescence threshold for GFP+ cells) was set to encompass 1% of untransfected cells and then applied to all samples. […] Such a result appears as a bimodal distribution on a histogram, with a peak below the gate threshold (i.e., GFP negative cell population) and a peak above it (i.e., the distinct GFP positive population mentioned above). […] In this study, a % GFP+ of at least 50% is considered to reflect the existence of a second population in the histograms, and thus a binary indicator of promoter function. […] The median GFP intensity of the GFP+ population was used a measure of the strength of the promoter, and normalized to the Ef1a positive control as shown in FIG. 2C.\nThis aligns with previous observations that the RNPA2B1 promoter is much stronger than that of CBX3 (Zhang, F., et al. (2010) Mol Ther, 18, 1640-1649 (7)). However, the RNPA2B1 promoter in A2UCOE is only 30% as strong as the EF1α promoter. […]"}, "[1]": {"test_system": "P19 murine embryonic carcinoma stem cell line", "test": "Stable transfection silencing screen of candidate UCOEs linked to Ef1α-GFP", "assay_type": "cell-based, mouse", "settings": "UCOE-Ef1α-GFP stable transfection", "method": "The candidate regions tested were Candidates 1, 1R, 3, 5, 6, 6R, 7, 8, 9R, 10, and 10R, with “R” denoting that the reverse orientation of the candidate region was tested. As a negative control, the stable expression construct without a UCOE or candidate region was assessed (Ef1a). As a positive control, the 2.2 kB A2UCOE sequence, as well as the 1.2 kB reverse orientation sequence 3′UCOE, were cloned into the same reporter construct as the candidate sequences. The percent GFP positive in the population was monitored as a metric for silencing by flow cytometry analysis with each passage, with the change (difference between final and initial time points) plotted on the graph (Δ% GFP+).\nThe assay is the same stable transfection screen format described for FIG. 2B. […]\nFluorescence data throughout silencing experiments was obtained using a MACSQuant® VYB flow cytometer (Miltenyi Biotec). EGFP was measured through the 488-nm laser and 525/50 nm band pass filter. Flow cytometry data was analyzed using the FlowJo™ single cell flow cytometry analysis software (Tree Star). […]\nCandidates were initially screened in the P19 murine embryonic carcinoma stem cell line. […] As P19 cells readily integrate DNA, a stable transfection of the expression construct performed. […]"}}}
{"molecule": "B1", "values": [{"measurement": "peaks in fluorescence histogram (binary indicator of promoter function)", "setting": "P19 cells; at least 50% GFP+ = second population", "result": "only one peak"}, {"measurement": "% GFP+ cells, representative flow cytometry example", "setting": "P19 cells; promoterless GFP construct, after two weeks of antibiotic selection, one representative example", "result": 1.99, "unit": "%"}, {"measurement": "inherent promoter activity", "setting": "P19 cells", "result": "did not exhibit inherent promoter activity"}, {"measurement": "inherent promoter activity", "setting": "P19 cells; listed as SRF-UCOE element", "result": "does not initiate transcription"}, {"measurement": "silencing resistance / stable expression relative to the negative (Ef1α-only) control", "setting": "[1]; 19 days", "result": "significant improvement in stable expression"}, {"measurement": "loss in percent GFP positive cells over the time period", "setting": "[1]; over 19 days after puromycin removal, flow cytometry", "result": "about 6%"}]}
